Experimental data as given in the supplement of paper PMC9732359.
± gives the uncertainty stated by the source.

Test: protein stability index of a GFP-peptide fusion (yeast GPS) (PSI 1-4); higher = more stable; sorted into four equal gates, so the index is relative within each strain
How it was run: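 Yeast carrying a pooled library were grown to mid-log phase in leucine-free medium. Each library plasmid expresses Cherry and has a tiled 17-residue yeast protein peptide fused downstream of GFP. Cells were sorted into four equal gates by GFP/Cherry ratio, and plasmids from each gate were PCR-amplified, Illumina-sequenced and assigned to strains by barcode. Summing, across gates, the read frequency times the gate number gave each peptide's protein stability index.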

| Sequence | protein stability index (doa10∆) | protein stability index (pdr5∆) | protein stability index (san1∆) | protein stability index (ubr1∆) |
| --- | --- | --- | --- | --- |
| KISEDPVKALNECIAST [SNF12] | 2.37 ± 0.17 | 2.86 ± 0.12 | 2.62 ± 0.068 | 2.82 ± 0.097 |
| RERDITSLFHKFILSGF [RRI2] | 1.71 ± 0.048 | 2.07 ± 0.045 | 2.23 ± 0.063 | 2.09 ± 0.049 |
| FEIVDREKNSLESGKET [SMC4] | 3.31 ± 0.26 | 3.16 ± 0.18 | – | – |
| RRVNQAIALLTIGAREA [RPS5] | 3.21 ± 0.21 | 2.72 ± 0.21 | 2.6 ± 0.24 | 3.36 ± 0.22 |
| LDPYERAIYSYLSGAIP [YDL116W/NUP84] | 2.83 ± 0.12 | 3.11 ± 0.082 | 3.13 ± 0.098 | 3.11 ± 0.13 |
| ALLIEVFTALLRLFINE [ITC1] | 2.11 ± 0.087 | 1.53 ± 0.076 | 1.42 ± 0.097 | 1.24 ± 0.051 |
| VENELLQVDVDIAGQRD [RRP42] | 1.36 ± 0.25 | 2.12 ± 0.28 | – | 1.14 ± 0.19 |
| SQVLDLAKKIAPGKVEL [SMC2] | – | 3.28 ± 0.19 | – | 2.84 ± 0.2 |
| NTFVTRLNNVFVIGEQG [RPS4A] | 3.29 ± 0.096 | 2.89 ± 0.09 | 3.22 ± 0.13 | 3.16 ± 0.094 |
| ALLKLSVKLKQKRLEAG [DIS3] | 1.11 ± 0.077 | 1.37 ± 0.085 | 1.04 ± 0.21 | 1.15 ± 0.099 |
| REDMPFTAEGIVPDLII [RPB2] | 2.49 ± 0.092 | 3.42 ± 0.15 | 3.1 ± 0.093 | 2.79 ± 0.11 |
| HKMSMMAHRVKVIPYST [RPO21] | 2.47 ± 0.065 | 2.64 ± 0.062 | 2.82 ± 0.079 | 2.44 ± 0.084 |
| QDDEYVKDWLYDSRPLE [PRP8] | 3.25 ± 0.16 | 3.43 ± 0.11 | 3.18 ± 0.13 | 3.02 ± 0.068 |
| MSSTNGNAPATPSSDQN [SOH1] | 3.17 ± 0.09 | 2.75 ± 0.1 | 3.2 ± 0.058 | 3.11 ± 0.1 |
| PQQPMVKTKTIELIDYD [RET1] | 2.89 ± 0.14 | 3.18 ± 0.2 | 2.94 ± 0.075 | 2.97 ± 0.058 |
| GASTGNANTGFSFGGTQ [YGL172W/NUP49] | 2.06 ± 0.067 | 2.12 ± 0.054 | 1.58 ± 0.097 | 2.33 ± 0.063 |
| TPDASKPSFSFGVPNSS [YLR335W/NUP2] | 2.92 ± 0.088 | 3.14 ± 0.086 | 3.07 ± 0.068 | 2.94 ± 0.072 |
| PLDSKDENFASVSPAGP [SNF2] | 3.05 ± 0.11 | 3.12 ± 0.092 | 3.15 ± 0.071 | 2.99 ± 0.06 |
| LQAIDLLENPNCFFDVI [DIS3] | 2.48 ± 0.068 | 2.29 ± 0.066 | 3.06 ± 0.056 | 2.38 ± 0.056 |
| SSSIKSTGPTGAVSLNP [RRP4] | 3.24 ± 0.035 | 3.37 ± 0.048 | 3.231 ± 0.027 | 3.151 ± 0.031 |
| VRLLCRSDGMGNVLLNA [YLR335W/NUP2] | 1.94 ± 0.17 | 2.41 ± 0.13 | 2.02 ± 0.18 | 2.53 ± 0.12 |
| EDAFNFWFDKLVTKILP [YCG1] | 1.94 ± 0.21 | 2.5 ± 0.14 | 2.88 ± 0.12 | 2.94 ± 0.11 |
| NGGSEEEITCALDYLIP [MED7] | 3.45 ± 0.1 | 3.45 ± 0.13 | 3.44 ± 0.098 | 3.35 ± 0.09 |
| LNTVLIADLDTEAEETS [RRP43] | 3.11 ± 0.08 | 2.87 ± 0.065 | 3.04 ± 0.047 | 3.21 ± 0.051 |
| LNELKAIKDKLEQDLHF [YIL149C/MLP2] | 3 ± 0.07 | 3.13 ± 0.069 | 2.82 ± 0.07 | 3.24 ± 0.063 |
| QNVNVPSAFNFTGNNST [YOR098C/NUP1] | 2.56 ± 0.049 | 2.89 ± 0.06 | 2.77 ± 0.037 | 2.84 ± 0.053 |
| QIAAQSPVELSRMFEEV [SMC1] | 3.19 ± 0.14 | 3.2 ± 0.079 | 3.14 ± 0.058 | 3.27 ± 0.075 |

| Sequence | protein stability index (doa10∆) | protein stability index (pdr5∆) | protein stability index (san1∆) | protein stability index (ubr1∆) |
| --- | --- | --- | --- | --- |
| MVNESDGVTHALYPQEA [RPB2] | 3.16 ± 0.087 | 3.26 ± 0.081 | 3.05 ± 0.067 | 3.35 ± 0.086 |
| TVIRGNSIISLEALDAI [SMX2] | 2.79 ± 0.075 | 2.43 ± 0.09 | 2.15 ± 0.11 | 2.57 ± 0.055 |
| GTCFGGSKLEDMSKILV [RET1] | 3.04 ± 0.074 | 3.3 ± 0.096 | 3.36 ± 0.065 | 3.45 ± 0.056 |
| VVDFKNKENDNVPSTKF [SNF12] | 3.6 ± 0.19 | 3.23 ± 0.25 | 3.04 ± 0.14 | – |
| TVQNEILGDLGKEFGTT [FAS2] | 3.03 ± 0.2 | 2.34 ± 0.25 | 2.57 ± 0.093 | 2.9 ± 0.16 |
| VEYNLFTNRSTMMANFE [BRN1] | 2.11 ± 0.18 | 2.4 ± 0.18 | 2.37 ± 0.095 | 2.65 ± 0.053 |
| RSMSGQPPTNVQPTIGQ [SNF5] | 2.74 ± 0.065 | 2.97 ± 0.071 | 3.01 ± 0.074 | 3.15 ± 0.036 |
| SDSSSEDEVKVEGPKFT [YLR335W/NUP2] | 3.4 ± 0.12 | 3.47 ± 0.13 | 3.4 ± 0.06 | 3.44 ± 0.16 |
| NPNTNTNSNNTPLQSQL [PGD1] | 2.91 ± 0.071 | 2.96 ± 0.066 | 2.88 ± 0.058 | 2.98 ± 0.07 |
| DNNYNTAETNNKVHETS [YDL088C/ASM4] | 2.99 ± 0.078 | 2.92 ± 0.069 | 2.78 ± 0.052 | 2.81 ± 0.051 |
| SELPDIYSRDIGAELKR [SNF2] | – | 3.26 ± 0.13 | 3.38 ± 0.08 | 3.41 ± 0.18 |
| SPNFKNYLKYLEYWCNP [SOH1] | 2.32 ± 0.055 | 2.34 ± 0.056 | 1.88 ± 0.053 | 2.71 ± 0.06 |
| NFRILKSFTNDKIPLNY [SRB5] | 2.94 ± 0.054 | 2.77 ± 0.057 | 2.84 ± 0.04 | 2.91 ± 0.036 |
| IPVGLMAQENSMERKVQ [MCD1] | – | 3.38 ± 0.29 | – | 3.19 ± 0.1 |
| QFNKILPEPTEGFAADD [FAS1] | 2.79 ± 0.067 | 3.07 ± 0.08 | 2.91 ± 0.081 | 2.77 ± 0.11 |
| SLILKESGSTPISISNA [YAR002W/NUP60] | 1.2 ± 0.085 | 1.62 ± 0.1 | 1.45 ± 0.11 | 1.23 ± 0.1 |
| IEDPNLSSNITFDGKPT [YMR153W/NUP53] | 3.02 ± 0.069 | 3.06 ± 0.056 | 3.12 ± 0.043 | 3.17 ± 0.05 |
| IESNKLAGVLYESRNVA [RRP6] | 2.93 ± 0.062 | 3.11 ± 0.074 | 3.07 ± 0.1 | 3.08 ± 0.062 |
| NIRSQLLSENRSEKSTT [SRP54] | 3.04 ± 0.06 | 3 ± 0.1 | 3.01 ± 0.055 | 3.13 ± 0.038 |
| LKGLLQELKADSPFSLI [SRP72] | 1.43 ± 0.059 | 1.26 ± 0.059 | 2.42 ± 0.092 | 1.45 ± 0.046 |
| QFEKSRKVSGPRALQPS [RET1] | 2.98 ± 0.085 | 3.19 ± 0.11 | 2.94 ± 0.061 | 3.06 ± 0.066 |
| EYLKGSESQLNSTLKKV [YCS4] | 2.85 ± 0.17 | – | 2.5 ± 0.2 | – |
| LTADYDALDIANRIGYI [RPL25] | 3.33 ± 0.045 | 3.4 ± 0.062 | 3.54 ± 0.038 | 3.43 ± 0.052 |
| PEGYKAKSISTSAKEPS [RPO31] | 1.39 ± 0.085 | 1.51 ± 0.077 | 1.45 ± 0.19 | 1.86 ± 0.09 |
| NVFNDTPRGNHWMGSSV [YMR129W/POM152] | 3.39 ± 0.11 | 3.46 ± 0.099 | 2.98 ± 0.075 | 3.12 ± 0.081 |
| GRSNEIVKTTTKQRLDA [PRP8] | 3.06 ± 0.073 | 2.78 ± 0.11 | 2.63 ± 0.13 | 3.2 ± 0.052 |
